Assay results: paper PMC2893186 (BMC Structural Biology, 2010)

Target: the molecule itself
Test: crystal structure; crystals grown from purified His-tagged ZHX2 HD2-3 (OPPF_2273), 20% PEG6000, 0.2 M LiCl, HEPES pH7; protein cleaved in the droplet, two molecules of HD2 in the asymmetric unit; 2.70 Å, data at 100 K

B1: ZHX2 HD2 (homeodomain 2 of human zinc-fingers and homeoboxes 2), proteolytic fragment derived from OPPF_2273 (ZHX2 HD2-3) (domain or fragment)
chain: RKKTKEQIAHLKASFLQSQFPDDAEVYRLIEVTGLARSEIKKWFSDHRYRCQRGIVHI
notes: ZHX2 (zinc-fingers and homeoboxes 2), human; homeodomain 2; Expressed as construct OPPF_2273 (HD2-3, aa 444-582); HD2-HD3 was cleaved by proteolysis after purification and only HD2 crystallized; Cys494 lies in the fragment; Homodimer in the crystal, with helix I domain-swapped and a disulfide bridge between the Cys494 of the two subunits; the deposited entry would show the ordered residues; also …
stoichiometry N: 2
